{
  "source": "paper PMC11925728",
  "about": "“Homeodomain protein PRRX1 anchors the Ku heterodimers at DNA double-strand breaks to promote nonhomologous end-joining”",
  "binders": {"B1": {"name": "MST blunt (Oligo#3-S/#1-A) (dsDNA)", "DNA 1": "AAGATGTTGTTTACACGAGGGCTCGAGCCCTCGTGTAAACAACATCTTTTTTTG", "DNA 2": "CAAAAAAAGATGTTGTTTACACGAGGGCTCGAGCCCTCGTGTAAACAACATCTT"}, "B2": {"name": "blunt dsDNA 54 bp, biotinylated (Oligo#1-S/#1-A) (dsDNA)", "DNA 1": "AAGATGTTGTTTACACGAGGGCTCGAGCCCTCGTGTAAACAACATCTTTTTTTG", "DNA 2": "CAAAAAAAGATGTTGTTTACACGAGGGCTCGAGCCCTCGTGTAAACAACATCTT"}, "B3": {"name": "5' overhang DNA (Oligo#1-S/#2-A) (dsDNA)", "DNA 1": "AAGATGTTGTTTACACGAGGGCTCGAGCCCTCGTGTAAACAACATCTTTTTTTG", "DNA 2": "CAAAAAAAGATGTTGTTTACACGAGGGCTC"}, "B4": {"name": "3' overhang DNA (Oligo#1-A/#2-S) (dsDNA)", "DNA 1": "CAAAAAAAGATGTTGTTTACACGAGGGCTCGAGCCCTCGTGTAAACAACATCTT", "DNA 2": "GAGCCCTCGTGTAAACAACATCTTTTTTTG"}},
  "key": {"MBP-PRRX1A (MBP-PA)": {"target": "MBP-PRRX1A (MBP-PA) (UniProt P54821-2 1-217)", "sequence (P54821 other isoform, or with tags, fused parts or gaps)": "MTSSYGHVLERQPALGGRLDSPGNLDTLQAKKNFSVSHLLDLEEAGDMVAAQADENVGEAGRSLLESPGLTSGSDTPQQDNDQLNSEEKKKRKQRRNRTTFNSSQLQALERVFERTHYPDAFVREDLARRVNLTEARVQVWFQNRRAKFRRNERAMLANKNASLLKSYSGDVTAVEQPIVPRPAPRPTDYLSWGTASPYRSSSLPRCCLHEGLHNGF", "test": "pull-down; EMSA: 20 mM Tris-HCl pH 7.4, 10 mM MgCl2, 2.5% glycerol, 0.05% NP-40, 0.1 ug/ul BSA, RT, 200 nM DNA; MST: 20 mM Tris-HCl pH 7.4, 150 mM NaCl, 10 mM MgCl2, 2.5%", "settings": "protein: recombinant, tags: N-term MBP (pMAL-c2X)"}, "His-PRRX1A (His-PA)": {"target": "His-PRRX1A (His-PA) (UniProt P54821-2 1-217)", "sequence (P54821 other isoform, or with tags, fused parts or gaps)": "as above", "test": "MST; 10 mM Mg2+; Kd only in figure; EMSA: 20 mM Tris-HCl pH 7.4, 10 mM MgCl2, 2.5% glycerol, 0.05% NP-40, 0.1 ug/ul BSA, RT, 200 nM DNA; MST: 20 mM Tris-HCl pH 7.4, 150 mM NaCl, 10 mM MgCl2, 2.5%", "settings": "protein: recombinant; tags: His (pET-28a); label: 3' 6-FAM on strand 1; blunt"}, "MBP-PA HD": {"target": "MBP-PA HD (UniProt P54821-2 94-153)", "sequence (P54821 94-153)": "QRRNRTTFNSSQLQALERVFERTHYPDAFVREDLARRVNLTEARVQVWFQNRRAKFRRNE", "test": "pull-down; EMSA: 20 mM Tris-HCl pH 7.4, 10 mM MgCl2, 2.5% glycerol, 0.05% NP-40, 0.1 ug/ul BSA, RT, 200 nM DNA; MST: 20 mM Tris-HCl pH 7.4, 150 mM NaCl, 10 mM MgCl2, 2.5%", "settings": "protein: recombinant; tags: N-term MBP; label: 3' biotin on strand 1; blunt"}, "MBP-PA NRRMut": {"target": "MBP-PA NRRMut (UniProt P54821-2 1-217, N144A;R145A;R146A)", "sequence (P54821 other isoform, or with tags, fused parts or gaps N144A;R145A;R146A)": "as the sequence (P54821 other isoform, or with tags, fused parts or gaps) above, with N144A, R145A, R146A counted along it", "test": "pull-down; EMSA: 20 mM Tris-HCl pH 7.4, 10 mM MgCl2, 2.5% glycerol, 0.05% NP-40, 0.1 ug/ul BSA, RT, 200 nM DNA; MST: 20 mM Tris-HCl pH 7.4, 150 mM NaCl, 10 mM MgCl2, 2.5%", "settings": "protein: recombinant; tags: N-term MBP; label: 3' biotin on strand 1; blunt"}, "MBP-PA R146A": {"target": "MBP-PA R146A (UniProt P54821-2 1-217, R146A)", "sequence (P54821 other isoform, or with tags, fused parts or gaps R146A | R146A R146A)": "as the sequence (P54821 other isoform, or with tags, fused parts or gaps) above, with R146A counted along it", "test": "pull-down; dsDNA, blunt inferred; EMSA: 20 mM Tris-HCl pH 7.4, 10 mM MgCl2, 2.5% glycerol, 0.05% NP-40, 0.1 ug/ul BSA, RT, 200 nM DNA; MST: 20 mM Tris-HCl pH 7.4, 150 mM NaCl, 10 mM MgCl2, 2.5%", "settings": "protein: recombinant, tags: N-term MBP, label: 3' biotin on strand 1"}},
  "data": [
    {"binder": "GAGCCCTCGTGTAAACAACATCTTTTTTTG (ssDNA)", "note": "[ssDNA Oligo#2-S]", "values": [
      {"measurement": "binding result", "setting": "MBP-PRRX1A (MBP-PA); label: 3' biotin, single strand", "value": "no binding"}
    ]},
    {"binder": "B1", "values": [
      {"measurement": "binding result", "setting": "His-PRRX1A (His-PA)", "value": "binds"}
    ]},
    {"binder": "B2", "values": [
      {"measurement": "binding result", "setting": "MBP-PRRX1A (MBP-PA); label: 3' biotin on strand 1, blunt", "value": "binds"},
      {"measurement": "binding result", "setting": "MBP-PA HD", "value": "no binding"},
      {"measurement": "binding result", "setting": "MBP-PA NRRMut", "value": "no binding"},
      {"measurement": "binding result", "setting": "MBP-PA R146A", "value": "no binding"}
    ]},
    {"binder": "B3", "values": [
      {"measurement": "binding result", "setting": "MBP-PRRX1A (MBP-PA); label: 3' biotin on strand 1, 5' overhang 24 nt (strand 1)", "value": "binds"}
    ]},
    {"binder": "B4", "values": [
      {"measurement": "binding result", "setting": "MBP-PRRX1A (MBP-PA); label: 3' biotin on strand 2, 3' overhang 24 nt (strand 1)", "value": "binds"}
    ]}
  ]
}
